Results published in US20210206865A1 (Regeneron, published 2021).

T1: human BCMA on the surface of cell lines (NCI-H929, MM.1S, OPM-2, RPMI-8226, Daudi, Raji, MOLP-8, U266) (human, UniProt Q02223 1-184)
T1 sequence: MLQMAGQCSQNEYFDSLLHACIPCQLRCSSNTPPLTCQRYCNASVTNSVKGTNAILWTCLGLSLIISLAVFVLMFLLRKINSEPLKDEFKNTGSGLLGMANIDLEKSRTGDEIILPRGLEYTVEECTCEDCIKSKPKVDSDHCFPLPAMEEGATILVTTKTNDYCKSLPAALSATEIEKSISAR

T2: human BCMA-MMH (extracellular domain of human BCMA with C-terminal myc-myc-hexahistidine tag) (human)
T2 construct: Monomeric antigen; also called hBCMA.mmh; hBCMA.mmH
T2 chain: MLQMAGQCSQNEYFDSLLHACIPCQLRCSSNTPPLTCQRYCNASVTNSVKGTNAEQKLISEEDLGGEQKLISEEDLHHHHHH

T3: mouse BCMA-MFC (BCMA with C-terminal mFc tag) (mouse)
T3 construct: Tested at a single concentration of 30 nM; also called mBCMA.mFc
T3 chain: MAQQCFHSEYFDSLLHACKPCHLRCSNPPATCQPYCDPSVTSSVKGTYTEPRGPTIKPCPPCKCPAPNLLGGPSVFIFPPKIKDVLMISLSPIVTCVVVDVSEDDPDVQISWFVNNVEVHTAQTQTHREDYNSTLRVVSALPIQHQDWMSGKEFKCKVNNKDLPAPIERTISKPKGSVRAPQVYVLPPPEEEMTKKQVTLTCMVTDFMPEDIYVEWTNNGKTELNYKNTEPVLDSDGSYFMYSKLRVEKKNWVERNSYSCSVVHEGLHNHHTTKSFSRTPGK

T4: human BCMA-MFC (extracellular domain of human BCMA with C-terminal mFc tag) (human)
T4 construct: also called hBCMA.mFc
T4 chain: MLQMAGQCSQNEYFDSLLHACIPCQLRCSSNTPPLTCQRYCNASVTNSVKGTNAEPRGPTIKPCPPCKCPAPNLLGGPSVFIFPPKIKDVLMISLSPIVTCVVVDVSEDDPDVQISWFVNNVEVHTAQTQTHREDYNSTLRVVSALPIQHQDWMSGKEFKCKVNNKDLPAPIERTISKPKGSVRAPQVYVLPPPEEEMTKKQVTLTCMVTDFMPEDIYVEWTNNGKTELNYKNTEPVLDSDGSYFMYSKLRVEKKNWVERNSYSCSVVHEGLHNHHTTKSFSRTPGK


Legend:
[1] = biological target: T1, human BCMA on the surface of cell lines …; experiment: cell-based or functional assay
[2] = biological target: T1, human BCMA on the surface of cell lines …; experiment: cell-based or functional assay; remark: listed apart in the source
[3] = biological target: T1, human BCMA on the surface of cell lines …; experiment: cell-based or functional assay; remark: listed apart in the source
[4] = biological target: T1, human BCMA on the surface of cell lines …; experiment: cell-based or functional assay; remark: listed apart in the source
[5] = biological target: T5, monkey BCMA-MMH (monkey BCMA with C-terminal myc-myc-hexahistidine tag) (monkey); experiment: SPR Biacore, 25 C, mAb captured via anti-hFc
T5 construct: Monomeric antigen; also called mfBCMA.mmh
Protocol: (§1) The CM5 Biacore sensor surface was derivatized by amine coupling with a monoclonal mouse anti-human Fc antibody (GE, #BR-1008-39) to capture purified anti-BCMA mAbs and anti-BCMA×anti-CD3 bispecific mAbs. All Biacore binding studies were performed in a buffer composed of 0.01M HEPES pH 7.4, 0.15M NaCl, 3 mM EDTA, 0.05% v/v Surfactant P20 (HBS-ET running buffer). […] Antigen samples were then injected over the anti-BCMA and anti-BCMA×anti-CD3 bispecific mAbs captured surfaces at a flow rate of 30 μL/minute. Antibody-reagent association was monitored for 5 minutes while dissociation in HBS-ET running buffer was monitored for 10 minutes. All of the binding kinetics experiments were performed at 25° C. Kinetic association (kₐ) and dissociation (kd) rate constants were determined by fitting the real-time sensorgrams to a 1:1 binding model using Scrubber 2.0c curve fitting software. Binding dissociation equilibrium constants (KD) and dissociative half-lives (t1/2) were calculated from the kinetic rate constants as: […]

[6] = biological target: T6, monkey BCMA-MFC (monkey BCMA with C-terminal mFc tag) (monkey); experiment: SPR Biacore, 25 C, mAb captured via anti-hFc
T6 construct: also called mfBCMA.mFc
Protocol: as §1

[7] = biological target: T2, human BCMA-MMH (extracellular domain of …); experiment: SPR Biacore, 25 C, mAb captured via anti-hFc
Protocol: as §1

[8] = biological target: T3, mouse BCMA-MFC (BCMA with C-terminal …); experiment: SPR Biacore, 25 C, mAb captured via anti-hFc
Protocol: as §1

[9] = biological target: T4, human BCMA-MFC (extracellular domain of …); experiment: SPR Biacore, 25 C, mAb captured via anti-hFc
Protocol: as §1

| Binder | MFI fold change over cells incubated in media only, U266, overnight with 67 nM antibody [1] [fold] | MFI fold change over cells incubated in media only, U266, overnight with 667 nM antibody [1] [fold] | MFI fold change over cells incubated in media only, NCI-H929, overnight with 67 nM antibody [2] [fold] | MFI fold change over cells incubated in media only, NCI-H929, overnight with 667 nM antibody [2] [fold] | MFI fold change over cells incubated in media only, Molp8, overnight with 67 nM antibody [4] [fold] | 90 nM hBCMA.mmh Bind (RU) [7] [RU] | Kd [7] [nM] | koff [7] [s⁻¹] | kon [7] [M⁻¹ s⁻¹] | t1/2 [7] [min] | 30 nM mBCMA.mFc Bind (RU) [8] [RU] | Kd [8] [nM] | koff [8] [s⁻¹] | kon [8] [M⁻¹ s⁻¹] | t1/2 [8] [min] | 30 nM hBCMA.mFc Bind (RU) [9] [RU] | Kd [9] [nM] | koff [9] [s⁻¹] | kon [9] [M⁻¹ s⁻¹] | t1/2 [9] [min] | further results |
| --- | --- | --- | --- | --- | --- | --- | --- | --- | --- | --- | --- | --- | --- | --- | --- | --- | --- | --- | --- | --- | --- |
| mAb21581, parental bivalent anti-BCMA antibody (antibody, V domains shown) VH: EVQLVESGGGLVQPGGSLRLSCAASGFTFSNFWMTWVRQAPGKGLEWVANMNQDGSEKYYVDSVKGRFTISRDNAKSSLYLQMNSLRAEDTAVYYCARDREYCISTSCYDDFDYWGQGTLVTVSS VL: not shown | 1.8 | 2.3 | 1.2 | 1.4 | 2.3 | – | – | – | – | – | – | – | – | – | – | – | – | – | – | – | MFI fold change over cells incubated in media only, MM1S, overnight with 67 nM antibody [3]: 7.3 fold; MFI fold change over cells incubated in media only, MM1S, overnight with 667 nM antibody [3]: 7 fold; MFI fold change over cells incubated in media only, Molp8, overnight with 667 nM antibody [4]: 3.7 fold |
| mAb16711 (antibody, V domains shown, Anti-BCMA monoclonal antibody; Captured by anti-human Fc in SPR) VH: QVQLVESGGGVVQPGRSLRLSCAASGFTFSTYGIHWVRQAPGKGLEWVAVILHDGSSNYYAESVKGRFIISRDNSKNTLYLQMNSLRAEDTALYYCTKRYSEAAGPNWFDPWGQGTLVTVSS VL: DIQMTQSPSSVSASVGDRVTITCRASRGISSWLAWYQQKPGKAPKLLIHAASSLQSGVPSRFSGSGSGTDFTLTISSLQPEDFATYYCQQAISFPFTFGPGTKVDIK | 2.2 | 2.2 | 2.8 | 2.1 | 3.5 | 22.2 | 1.73 | 0.00347 | 2.01e+06 | 3.3 | 90 | 1.02 | 0.0011 | 1.07e+06 | 10.5 | 114 | 0.103 | 0.00019 | 1.85e+06 | 60.8 | 90 nM mfBCMA.mmh Bind (RU) [5]: -0.5 RU; 30 nM mfBCMA.mFc Bind (RU) [6]: 0.9 RU; binding result [6]: no binding (tested: 30 nM); MFI fold change over cells incubated in media only, Molp8, overnight with 667 nM antibody [4]: 3 fold |
| mAb16747 (REGN4515) (antibody, V domains shown, Anti-BCMA monoclonal antibody; Captured by anti-human Fc in SPR) VH: QVQLVESGGGLVKPGGSLRLSCAASGFTFSDYYISWIRQAPGKGLEWVSYISSSGSSIKYADSVKGRFTISRDNAKNSLYLQMNSLRAEDTAVYYCAREGGNYGMDVWGQGTTVTVSS VL: DIQMTQSPSSVSASVGDRVTITCRASQGINNWLVWYQQKPGKAPKLLIYAATSLQSGVPSRFSGSGSGTDFTLTISSLQPEDFATYYCQQANSFPPTFGQGTKLEIK | 1.5 | 1.7 | 1.8 | 2.1 | 2.2 | 31.4 | 2.84 | 0.00247 | 869000 | 4.7 | 108 | 4.42 | 0.00418 | 947000 | 2.8 | 146 | 0.0633 | 8.95e-05 | 1.41e+06 | 129 | 30 nM mfBCMA.mFc Bind (RU) [6]: 101 RU; Kd [6]: 3.37 nM; koff [6]: 0.00716 s⁻¹; kon [6]: 2.13e+06 M⁻¹ s⁻¹; t1/2 [6]: 1.6 min; MFI fold change over cells incubated in media only, Molp8, overnight with 667 nM antibody [4]: 0.6 fold |
| mAb16716 (antibody, V domains shown, Anti-BCMA monoclonal antibody; Captured by anti-human Fc in SPR) VH: not shown VL: DIQMTQSPSSVSASLGDRVTITCRASQGISSWLAWYQRKPGKAPKLLIYAASSLQSGVPSRFSGSGSGADFTLTISSLQPEDFATYYCQQAKSVPFTFGPGTKVDIK | – | – | – | – | – | 26.4 | 3.56 | 0.00299 | 841000 | 3.9 | 33.4 | 18.8 | 0.00385 | 205000 | 3 | 120 | 0.0968 | 8.35e-05 | 862000 | 138 | 90 nM mfBCMA.mmh Bind (RU) [5]: 0.8 RU; binding result [5]: no binding (tested: 90 nM) |
| mAb16732 (REGN4514) (antibody, V domains shown, Anti-BCMA monoclonal antibody; Captured by anti-human Fc in SPR) VH: EVQLVESGGGLVQPGRSLRLSCAASGFTFDDYAMHWVRQAPGKGLEWVSGISWNSGNMGYADSVKGRFTISRDNAKNSLFLQMHSLRAEDTAFYYCAKVRLTAFDFWGQGTLVTVSS VL: DIQMTQSPSSLSASVGDRVTITCRTSQSIGNYLNWFQQKPGKAPKLLIYTASSLQNGVPSRFTGSGSGTDFTLTISSLQPEDFVIYYCQQSFSTPYTFGQGTKLEIK | – | – | – | – | – | 25.3 | 2.69 | 0.00285 | 1.06e+06 | 4.1 | 110 | 0.677 | 0.000269 | 397000 | 43 | 124 | 0.0422 | 4.53e-05 | 1.07e+06 | 255 | 30 nM mfBCMA.mFc Bind (RU) [6]: 40.3 RU; Kd [6]: 14.7 nM; koff [6]: 0.00724 s⁻¹; kon [6]: 492000 M⁻¹ s⁻¹; t1/2 [6]: 1.6 min |
